# Measured values from the supplement of paper PMC11246515.
# ± gives the standard deviation of the averaged measurements.
# Experiment: total protein half-life in vivo (active degradation + dilution); higher = more stable protein
# [1] = E. coli NCM3722 delta-clpP delta-lon delta-hslV, growth: N-lim chemostat, doubling time 6 h
# [2] = E. coli NCM3722 delta-clpP, growth: N-lim chemostat, doubling time 6 h
# [3] = E. coli NCM3722 delta-hslV, growth: N-lim chemostat, doubling time 6 h
# [4] = E. coli NCM3722 delta-lon, growth: N-lim chemostat, doubling time 6 h
# [5] = E. coli NCM3722 delta-smpB, growth: N-lim chemostat, doubling time 6 h
# [6] = wild type E. coli NCM3722, growth: C-lim chemostat, doubling time 3 h
# [7] = wild type E. coli NCM3722, growth: C-lim chemostat, doubling time 6 h
# [8] = wild type E. coli NCM3722, growth: C-lim chemostat, doubling time 12 h
# [9] = wild type E. coli NCM3722, growth: N-lim chemostat, doubling time 6 h
# [10] = wild type E. coli NCM3722, growth: N-lim chemostat, doubling time 12 h
# [11] = wild type E. coli NCM3722, growth: P-lim chemostat, doubling time 6 h
# [12] = wild type E. coli NCM3722, growth: P-lim chemostat, doubling time 12 h
sequence,measurement,setting,value
MRLFIAEKPSLARAIADVLPKPHRKGDGFIECGNGQVVTWCIGHLLEQAQPDAYDSRYARWNLADLPIVPEKWQLQPRPSVTKQLNVIKRFLHEASEIVHAGDPDREGQLLVDEVLDYLQLAPEKRQQVQRCLINDLNPQAVERAIDRLRSNSEFVPLCVSALARARADWLYGINMTRAYTILGRNAGYQGVLSVGRVQTPVLGLVVRRDEEIENFVAKDFFEVKAHIVTPADERFTAIWQPSEACEPYQDEEGRLLHRPLAEHVVNRISGQPAIVTSYNDKRESESAPLPFSLSALQIEAAKRFGLSAQNVLDICQKLYETHKLITYPRSDCRYLPEEHFAGRHAVMNAISVHAPDLLPQPVVDPDIRNRCWDDKKVDAHHAIIPTARSSAINLTENEAKVYNLIARQYLMQFCPDAVFRKCVIELDIAKGKFVAKARFLAEAGWRTLLGSKERDEENDGTPLPVVAKGDELLCEKGEVVERQTQPPRHFTDATLLSAMTGIARFVQDKDLKKILRATDGLGTEATRAGIIELLFKRGFLTKKGRYIHSTDAGKALFHSLPEMATRPDMTAHWESVLTQISEKQCRYQDFMQPLVGTLYQLIDQAKRTPVRQFRGIVAPGSGGSADKKKAAPRKRSAKKSPPADEVGSGAIA,total protein half-life in vivo,[1],5.31 ± 0.35 h
same,total protein half-life in vivo,[2],2.48 ± 0.14 h
same,total protein half-life in vivo,[3],1.843 ± 0.0066 h
same,total protein half-life in vivo,[4],4.39 ± 0.75 h
same,total protein half-life in vivo,[5],1.97 ± 0.14 h
same,total protein half-life in vivo,[6],1.65 ± 0.098 h
same,total protein half-life in vivo,[7],3.12 ± 0.038 h
same,total protein half-life in vivo,[8],3.27 ± 0.57 h
same,total protein half-life in vivo,[9],2.32 ± 0.17 h
same,total protein half-life in vivo,[10],3.255 ± 0.0094 h
same,total protein half-life in vivo,[11],2.23 ± 0.41 h
same,total protein half-life in vivo,[12],4.46 ± 1.1 h
MRLFNWRRQAVLNAMPLVKPDQVRTPWHEFWRRFRRQHMAMTAALFVILLIVVAIFARWIAPYDAENYFDYDNLNNGPSLQHWFGVDSLGRDIFSRVLVGAQISLAAGVFAVFIGAAIGTLLGLLAGYYEGWWDRLIMRICDVLFAFPGILLAIAVVAVLGSGIANVIIAVAIFSIPAFARLVRGNTLVLKQQTFIESARSIGASDMTVLLRHILPGTVSSIVVFFTMRIGTSIISAASLSFLGLGAQPPTPEWGAMLNEARADMVIAPHVAVFPALAIFLTVLAFNLLGDGLRDALDPKIKG,total protein half-life in vivo,[2],6.63 h
same,total protein half-life in vivo,[3],6.48 ± 0.35 h
same,total protein half-life in vivo,[5],6.59 ± 0.99 h
same,total protein half-life in vivo,[6],3.08 ± 0.21 h
same,total protein half-life in vivo,[7],6.44 ± 0.14 h
same,total protein half-life in vivo,[8],13.6 h
same,total protein half-life in vivo,[9],6.817 ± 0.047 h
same,total protein half-life in vivo,[10],12.4 ± 1.2 h
same,total protein half-life in vivo,[11],6.55 ± 0.52 h
MRLLNRLNQYQRLWQPSAGKPQTVTVSELAERCFCSERHVRTLLRQAQEAGWLEWQAQSGRGKRGQLRFLVTPESLRNAMMEQALETGKQQDVLELAQLAPGELRTLLQPFMGGQWQNDTPTLRIPYYRPLEPLQPGFLPGRAEQHLAGQIFSGLTRFDNNTQRPIGDLAHHWETSTDGLRWDFYLRSTLHWHNGDAVKASHLHQRLLMLLQLPALDQLFISVKRIEVTHPQCLTFFLHRPDYWLAHRLASYCSHLAHPQFPLIGTGPFRLTQFTAELVRLESHDYYHLRHPLLKAVEYWITPPLFEKDLGTSCRHPVQITIGKPEELQRVSQVSSGISLGFCYLTLRKSPRLSLWQARKVISIIHQSGLLQTLEVGENLITASHALLPGWTIPHWQVPDEVKLPKTLTLVYHLPIELHTMAERLQATLAAEGCELTIIFHNAKNWDDTTLQAHADLMMGDRLIGEAPEYTLEQWLRCDPLWPHVFDAPAYAHLQSTLDAVQIMPDEENRFNALKAVFSQLMTDATLTPLFNYHYRISAPPGVNGVRLTPRGWFEFTEAWLPAPSQ,total protein half-life in vivo,[1],5.67 h
same,total protein half-life in vivo,[6],1.85 ± 0.39 h
same,total protein half-life in vivo,[7],3 ± 0.03 h
same,total protein half-life in vivo,[8],4.716 ± 0.0097 h
MRLLPLVAAATAAFLVVACSSPTPPRGVTVVNNFDAKRYLGTWYEIARFDHRFERGLEKVTATYSLRDDGGLNVINKGYNPDRGMWQQSEGKAYFTGAPTRAALKVSFFGPFYGGYNVIALDREYRHALVCGPDRDYLWILSRTPTISDEVKQEMLAVATREGFDVSKFIWVQQPGS [P0A901],total protein half-life in vivo,[1],5.85 ± 0.12 h
same,total protein half-life in vivo,[2],6.28 ± 0.6 h
same,total protein half-life in vivo,[3],5.56 ± 0.29 h
same,total protein half-life in vivo,[4],6.82 ± 0.84 h
same,total protein half-life in vivo,[5],5.8 ± 0.32 h
same,total protein half-life in vivo,[6],2.82 ± 0.082 h
same,total protein half-life in vivo,[7],5.41 ± 0.38 h
same,total protein half-life in vivo,[8],10.6 ± 2.6 h
same,total protein half-life in vivo,[9],5.78 ± 0.14 h
same,total protein half-life in vivo,[10],11.8 ± 1.4 h
same,total protein half-life in vivo,[11],5.43 ± 0.26 h
same,total protein half-life in vivo,[12],11.04 ± 0.072 h
MRLNPGQQQAVEFVTGPCLVLAGAGSGKTRVITNKIAHLIRGCGYQARHIAAVTFTNKAAREMKERVGQTLGRKEARGLMISTFHTLGLDIIKREYAALGMKANFSLFDDTDQLALLKELTEGLIEDDKVLLQQLISTISNWKNDLKTPSQAAASAIGERDRIFAHCYGLYDAHLKACNVLDFDDLILLPTLLLQRNEEVRKRWQNKIRYLLVDEYQDTNTSQYELVKLLVGSRARFTVVGDDDQSIYSWRGARPQNLVLLSQDFPALKVIKLEQNYRSSGRILKAANILIANNPHVFEKRLFSELGYGAELKVLSANNEEHEAERVTGELIAHHFVNKTQYKDYAILYRGNHQSRVFEKFLMQNRIPYKISGGTSFFSRPEIKDLLAYLRVLTNPDDDSAFLRIVNTPKREIGPATLKKLGEWAMTRNKSMFTASFDMGLSQTLSGRGYEALTRFTHWLAEIQRLAEREPIAAVRDLIHGMDYESWLYETSPSPKAAEMRMKNVNQLFSWMTEMLEGSELDEPMTLTQVVTRFTLRDMMERGESEEELDQVQLMTLHASKGLEFPYVYMVGMEEGFLPHQSSIDEDNIDEERRLAYVGITRAQKELTFTLCKERRQYGELVRPEPSRFLLELPQDDLIWEQERKVVSAEERMQKGQSHLANLKAMMAAKRGK,total protein half-life in vivo,[1],4.75 ± 0.66 h
same,total protein half-life in vivo,[2],3.564 ± 0.03 h
same,total protein half-life in vivo,[3],3.26 ± 0.39 h
same,total protein half-life in vivo,[4],3.59 ± 0.24 h
same,total protein half-life in vivo,[5],2.97 ± 0.12 h
same,total protein half-life in vivo,[6],2.89 ± 0.43 h
same,total protein half-life in vivo,[7],4.89 ± 0.71 h
same,total protein half-life in vivo,[8],6.36 ± 0.89 h
same,total protein half-life in vivo,[9],3.27 ± 0.52 h
same,total protein half-life in vivo,[10],4.74 ± 0.2 h
same,total protein half-life in vivo,[11],5.75 ± 0.71 h
same,total protein half-life in vivo,[12],8.39 ± 0.72 h
MRLRKYNKSLGWLSLFAGTVLLSGCNSALLDPKGQIGLEQRSLILTAFGLMLIVVIPAILMAVGFAWKYRASNKDAKYSPNWSHSNKVEAVVWTVPILIIIFLAVLTWKTTHALEPSKPLAHDEKPITIEVVSMDWKWFFIYPEQGIATVNEIAFPANTPVYFKVTSNSVMNSFFIPRLGSQIYAMAGMQTRLHLIANEPGTYDGISASYSGPGFSGMKFKAIATPDRAAFDQWVAKAKQSPNTMSDMAAFEKLAAPSEYNQVEYFSNVKPDLFADVINKFMAHGKSMDMTQPEGEHSAHEGMEGMDMSHAESAH [P0ABJ1],total protein half-life in vivo,[1],5.81 ± 1.2 h
same,total protein half-life in vivo,[3],6.43 ± 0.55 h
same,total protein half-life in vivo,[4],6.06 ± 0.16 h
same,total protein half-life in vivo,[5],5.63 ± 0.44 h
same,total protein half-life in vivo,[7],7.01 ± 0.81 h
same,total protein half-life in vivo,[9],6.11 ± 0.29 h
same,total protein half-life in vivo,[11],5.85 ± 0.097 h
same,total protein half-life in vivo,[12],11.98 ± 0.095 h
